Experimental data: patent publication US20030104352

Biological target: T1, LtrA (L1.LtrB group II intron-encoded protein) (Lactococcus lactis) (UniProt P0A3U0)
T1 sequence: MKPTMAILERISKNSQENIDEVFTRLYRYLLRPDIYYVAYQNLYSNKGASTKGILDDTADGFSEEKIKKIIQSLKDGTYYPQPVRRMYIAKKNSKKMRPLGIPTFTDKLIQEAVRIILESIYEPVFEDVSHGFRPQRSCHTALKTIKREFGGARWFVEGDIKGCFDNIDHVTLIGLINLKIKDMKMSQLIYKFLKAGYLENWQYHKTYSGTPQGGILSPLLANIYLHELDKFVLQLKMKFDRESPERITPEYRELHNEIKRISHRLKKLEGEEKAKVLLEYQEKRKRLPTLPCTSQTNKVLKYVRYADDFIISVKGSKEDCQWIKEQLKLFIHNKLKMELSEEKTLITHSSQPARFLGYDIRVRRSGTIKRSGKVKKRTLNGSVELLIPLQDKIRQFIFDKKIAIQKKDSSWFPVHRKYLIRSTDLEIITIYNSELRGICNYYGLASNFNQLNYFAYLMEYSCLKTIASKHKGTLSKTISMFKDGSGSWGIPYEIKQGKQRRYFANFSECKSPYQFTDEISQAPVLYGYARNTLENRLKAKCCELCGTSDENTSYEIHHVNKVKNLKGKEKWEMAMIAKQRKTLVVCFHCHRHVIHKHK
Test: cell_activity
Details: for binding signal (mutability value): doped target pool selection; for activity: after IPTG induction

L1.LtrB deltaORF intron RNA ; L1.LtrB DNA target -30 to +15
activity (% TetR colonies) (100 uM IPTG, ~70% without IPTG): 100

L1.LtrB deltaORF intron RNA ; L1.LtrB target C-7A
binding signal (mutability value) ([24 (-7 C>A)], preferred over wild type): 3.83

L1.LtrB deltaORF intron RNA ; L1.LtrB target G-21A
binding signal (mutability value) ([10 (-21 G>A)]): -0.6

L1.LtrB deltaORF intron RNA ; L1.LtrB target G-21C
binding signal (mutability value) ([10 (-21 G>C)]): -0.9

L1.LtrB deltaORF intron RNA ; L1.LtrB target G-21T
binding signal (mutability value) ([10 (-21 G>T)], absent from active sites): -1

retargeted L1.LtrB intron HIV1-4021s ; HIV-1 proviral target 4021s
activity: > 60 % mobility

retargeted L1.LtrB intron HIV1-4069s ; HIV-1 pol target 4069s
activity (also inserted in human cells (p89)): > 60 % mobility
